Source: patent publication US10760112B2, “Enzymatic activity assays for glucocerebrosidase” (Shire Human Genetic Therapies, Inc., priority 2014, dated 2020)

Tests used:
[1] = Velaglucerase activity at varying levels of sodium taurocholate; type: biochemical; settings: range tested 2 mM to 25 mM sodium taurocholate
Procedure: Assays of velaglucerase activity were carried out in the presence of varying levels of sodium taurocholate or oleic acid. Sodium taurocholate is an anionic detergent that has been, in some cases, used to facilitate lipid-based substrate solubility in aqueous environments. The effect of sodium taurocholate was examined over a concentration range of 2 mM to 25 mM (FIG. 6).

[2] = Enzyme kinetics assay with C18:1 glucosylceramide substrate, glucose detected by HPAEC-PAD; type: biochemical
Procedure: Sonication was used to achieve a consistent substrate preparation. A sonicator was pre-set to 60% AMPL and 5 minutes. A 4 oz. amber bottle of substrate dilution buffer (4 mM taurocholic acid, 0.2% v/v oleic acid in citrate/phosphate buffer pH 5.0) was placed in the noise isolation chamber and the sonicator probe was immersed into the solution. The substrate dilution buffer was sonicated at 60% AMPL for 5 minutes. Following sonication, the noise isolation chamber was opened. A second cycle of sonication at 60% AMPL for 5 minutes was initiated while the amber bottle was gently swirled. After 5 minutes, the substrate dilution buffer was cloudy. Approximately 15-20 mg of C18:1 glucosylceramide was weighed in a clean 2 oz. amber bottle. Sonicated substrate dilution buffer was added to bring the concentration of C18:1 glucosylceramide to 0.64 mg/mL (approximately 880 μM). Next, the same sonication steps were repeated for the 2 oz. amber bottle of 880 μM C18:1 glucosylceramide, with the additional consideration that, prior to the step of gently swirling the bottle while sonicating, it was ensured that all substrate particles were in the biphasic mixture. Sonication and swirling were continued until there were no visible particles in the mixture.
After the sonication procedure, two stocks were prepared for use in the assay. A first reagent reservoir filled with sonicated substrate dilution buffer. A second reagent reservoir was filled with 6 mL sonicated substrate dilution buffer and 2 mL of the 880 μM C18:1 glucosylceramide (final substrate concentration of 220 μM C18:1 glucosylceramide).
A dilution series of substrate was prepared in a 96-well plate having columns 1-12, rows A-H, and a well volume of 0.5 mL. Each well of rows A-G was filled with 170 μL substrate dilution buffer. In addition, 200 μL substrate solution of different concentrations were transferred to the appropriate wells of rows A to G according to Table 2. Substrate dilution buffer and substrate solution were mixed by pipetting.
Frozen experimental and assay control samples were thawed in a 37° C. water bath for <5 min. In the present examples, the sample is a sample of enzyme. After thawing, each tube was placed on ice. Dilutions of the samples were then prepared at room temperature. To prepare the sample dilutions, sample dilution buffer (50 mM citrate buffer pH 6.0, 0.75 mg/ml BSA) was placed on ice in centrifuge tubes, each tube containing 990 μL sonicated sample dilution buffer. Tubes of sample dilution buffer were briefly vortexed (1-3 seconds) and pulse centrifuged to collect the liquid to the bottom of the tube. A 10 μL aliquot of each sample was transferred into a dedicated tube of sample dilution buffer to prepare a 1:100 dilution. Samples were diluted in triplicate. Samples were briefly vortexed to ensure proper mixing. Next, a 10 μL aliquot of each of 1:100 diluted sample was transferred to a dedicated second tube having been preloaded with 990 μL sample dilution buffer, resulting in a 1:10,000 dilution. Samples were briefly vortexed to ensure proper mixing. Next, the 1:10,000 dilution was used to prepare a 1 mL dilution having a final concentration of 0.02 ng/μL. In particular, the volume of the 1:10,000 dilution needed to dilute the enzyme to 0.02 ng/μL in 1 mL was determined and transferred from the second tube into the a third dedicated tube preloaded with an amount of sample dilution buffer calculated to result in a total volume of 1 mL at 0.02 ng/μL. Accordingly, when 10 μL of 0.02 ng/μL enzyme is mixed with 100 μL of substrate solution, the final concentration of enzyme is 0.0290 nM, assuming a monomer with a relative molecular mass of 62.8 kDa. Samples were briefly vortexed to ensure proper mixing. Final dilution tubes were placed on ice.
Briefly, velaglucerase alfa was incubated with C18:1 glucosylceramide at eight concentrations of substrate (2.70-200 μM) and in 110 μL reactions for 20 min at 37° C. with appropriate standards and/or controls. […]

[3] = Photo Stress (forced degradation, oxidation by light exposure)

B1: velaglucerase: recombinant form of glucocerebrosidase approved as long-term enzyme replacement therapy for Gaucher disease (SEQ ID NO: 1) (protein)
chain: ARPCIPKSFGYSSVVCVCNATYCDSFDPPTFPALGTFSRYESTRSGRRMELSMGPIQANHTGTGLLLTLQPEQKFQKVKGFGGAMTDAAALNILALSPPAQNLLLKSYFSEEGIGYNIIRVPMASCDFSIRTYTYADTPDDFQLHNFSLPEEDTKLKIPLIHRALQLAQRPVSLLASPWTSPTWLKTNGAVNGKGSLKGQPGDIYHQTWARYFVKFLDAYAEHKLQFWAVTAENEPSAGLLSGYPFQCLGFTPEHQRDFIARDLGPTLANSTHHNVRLLMLDDQRLLLPHWAKVVLTDPEAAKYVHGIAVHWYLDFLAPAKATLGETHRLFPNTMLFASEACVGSKFWEQSVRLGSWDRGMQYSHSIITNLLYHVVGWTDWNLALNPEGGPNWVRNFVDS
In the case of B1, the “optimal concentration of sodium taurocholate” value [1] is reported as 6.5 mM, the “sodium taurocholate concentration above which activity gradually declined” value [1] is reported as “above 8 mM” and the Km ([2]; Baseline (unstressed control)) is reported as 4.9 µM. For the same molecule, the kcat ([2]; Baseline (unstressed control)) was 90.7 s⁻¹, the Km [2, 3] was 6.7 µM and the kcat [2, 3] was 76.8 s⁻¹. For the same molecule, the “change in kcat, stressed sample vs baseline” value ([2]; photo stress vs unstressed control) was “clear decrease” and the “change in Km, stressed sample vs baseline” value ([2]; photo stress vs unstressed control, not considered significant) was “minor increase”.
